Reference: patent publication US20180273621A1 (AstraZeneca / MedImmune, published 2018)

Experiments:
human CD19 antigen [1] = target: T1, human CD19 antigen (human, UniProt P15391 20-556); assay: cell-based or functional assay
T1 sequence (looked up): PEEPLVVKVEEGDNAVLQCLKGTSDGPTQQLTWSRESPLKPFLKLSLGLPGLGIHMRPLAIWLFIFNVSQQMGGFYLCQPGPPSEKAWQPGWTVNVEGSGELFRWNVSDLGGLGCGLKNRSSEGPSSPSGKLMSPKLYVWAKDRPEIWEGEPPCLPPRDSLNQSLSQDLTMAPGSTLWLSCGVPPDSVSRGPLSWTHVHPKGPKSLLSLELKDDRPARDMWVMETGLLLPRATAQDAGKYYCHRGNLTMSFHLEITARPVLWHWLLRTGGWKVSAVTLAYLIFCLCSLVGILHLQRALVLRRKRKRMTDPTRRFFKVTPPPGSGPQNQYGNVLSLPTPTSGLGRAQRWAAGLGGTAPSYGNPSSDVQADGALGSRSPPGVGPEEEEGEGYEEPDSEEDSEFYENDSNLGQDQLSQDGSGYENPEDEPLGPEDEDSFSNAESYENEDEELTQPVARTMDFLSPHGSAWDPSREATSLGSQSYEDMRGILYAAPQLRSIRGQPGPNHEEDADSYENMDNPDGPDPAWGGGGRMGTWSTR

human CD19 antigen [2] = target: T1, human CD19 antigen; assay: cell based ECL binding assay (Meso Scale Discovery; Lu et al. 2006) on 300B4 cells as titled on the sheet, Fab supernatant, signal in Units
Protocol: (§1) CDR specific phage display libraries were generated as described above. Libraries were screened by testing a large number of phage clones (approximately 400 clones per library) in single point cell based binding assay (Lu et al., J. Immunol. Methods 314:74-79 (2006)). Reagents and disposables were purchased from Meso Scale Discovery; assays were performed following the manufacturer's instructions.
Combinatorial phage display libraries were prepared as described above. Individual Fab clones from the combinatorial library were tested for binding to 300B4 and Raji cells (Lu et al., J. Immunol. Methods 314:74-79 (2006)).

human CD19 antigen [3] = target: T1, human CD19 antigen; assay: cell based ECL binding assay (Meso Scale Discovery; Lu et al. 2006) on 300B4 cells expressing recombinant human CD19, Fab supernatant, signal in Units
Protocol: as §1

human CD19 antigen [4] = target: T1, human CD19 antigen; assay: cell based ELISA on 300B4 cells expressing recombinant human CD19, OD450
Protocol: (§2) 300B4 cells were cultured according to standard protocols in RPMI 1640 medium containing L-glutamine and supplemented with 10% Fetal Calf Serum, β-mercaptoethanol in the presence of 1 mg/ml G418. A standard ELISA protocol can be used for the cell based CD19 binding assay. […] Binding reactions are performed in triplicates for each antibody concentration tested. Negative control wells using an isotype matched antibody of irrelevant specificity should be included in the assay. Following incubation with the antibody 300B4 cells are washed three times with 200 micro liter of ELISA buffer. The amount of chimeric, humanized, or human anti-CD19 antibodies bound to 300B4 cells can be detected using a goat anti-human kappa antibody conjugated with horseradish peroxidase according to standard protocols.

human CD19 antigen [5] = target: T1, human CD19 antigen; assay: as above; remark: listed apart in the source
Protocol: as §2
An isotype matched human antibody of irrelevant specificity was included in the assay as a negative control.

Binder | % max. cell kill at 10 ug/ml, DB target cells (human CD19 antigen [1]) [%] | % max. cell kill at 10 ug/ml, Daudi target cells (human CD19 antigen [1]) [%] | % max. cell kill at 10 ug/ml, Farage target cells (human CD19 antigen [1]) [%] | % max. cell kill at 10 ug/ml, Granta-519 target cells (human CD19 antigen [1]) [%] | % max. cell kill at 10 ug/ml, Karpas-422 target cells (human CD19 antigen [1]) [%] | % max. cell kill at 10 ug/ml, Karpas-1106P target cells (human CD19 antigen [1]) [%] | % max. cell kill at 10 ug/ml, Nalm-6 target cells (human CD19 antigen [1]) [%] | % max. cell kill at 10 ug/ml, Namalwa target cells (human CD19 antigen [1]) [%] | % max. cell kill at 10 ug/ml, Oci-LY19 target cells (human CD19 antigen [1]) [%] | % max. cell kill at 10 ug/ml, RL target cells (human CD19 antigen [1]) [%] | % max. cell kill at 10 ug/ml, Raji target cells (human CD19 antigen [1]) [%] | % max. cell kill at 10 ug/ml, Toledo target cells (human CD19 antigen [1]) [%] | ADCC EC50, Daudi target cells (human CD19 antigen [1]) [ng/mL] | ADCC EC50, Farage target cells (human CD19 antigen [1]) [ng/mL] | ADCC EC50, Karpas-1106P target cells (human CD19 antigen [1]) [ng/mL] | ADCC EC50, RL target cells (human CD19 antigen [1]) [ng/mL] | ADCC EC50, Raji target cells (human CD19 antigen [1]) [ng/mL] | ADCC EC50, Toledo target cells (human CD19 antigen [1]) [ng/mL] | EC50 (read off the curve) (human CD19 antigen [4]) [ng/mL] | other results
afucosylated 16C4 anti-CD19 antibody (antibody, human IgG1, V domains shown, afucosylated Fc N-glycan (as for 3649-aFuc)) VH: EVQLVESGGGLVQPGGSLRLSCAASGFTFSSSWMNWVRQAPGKGLEWVGRIYPGDGDTNYNVKFKGRFTISRDDSKNSLYLQMNSLKTEDTAVYYCARSGFITTVRDFDYWGQGTLVTVSS VL: EIVLTQSPDFQSVTPKEKVTITCRASESVDTFGISFMNWFQQKPDQSPKLLIHEASNQGSGVPSRFSGSGSGTDFTLTINSLEAEDAATYYCQQSKEVPFTFGGGTKVEIK | 34 | 50 | 48 | 6 | 62 | 59 | 35 | 23 | 47 | 45 | 43 | 48 | 0.0031 | 0.0141 | 0.009 | 0.0073 | 0.003 | 0.0075 | – | ADCC EC50, Karpas-422 target cells (human CD19 antigen [1]): 0.0181 ng/mL; ADCC EC50, Nalm-6 target cells (human CD19 antigen [1]): 0.0199 ng/mL; ADCC EC50, Namalwa target cells (human CD19 antigen [1]): 0.012 ng/mL; ADCC EC50, Oci-LY19 target cells (human CD19 antigen [1]): 0.0163 ng/mL
5C4 affinity matured Fab (Fab, V domains shown, Fab) VH: EVQLVESGGGLVQPGGSLRLSCAASGFTFSSVWMNWVRQAPGKGLEWVGRIYPGDGDTNYNVKFKGRFTISRDDSKNSLYLQMNSLKTEDTAVYYCARSGFITTVRDFDYWGQGTLVTVSS VL: EIVLTQSPDFQSVTPKEKVTITCRASESVITFGISFINWFQQKPDQSPKLLIHEASNPYSGVPSRFSGSGSGTDFTLTINSLEAEDAATYYCAQTKRVPFTFGGGTKVEIK | – | – | – | – | – | – | – | – | – | – | – | – | – | – | – | – | – | – | – | EC50 (read off the curve) (human CD19 antigen [2]): ~400 ng/mL
16C4 Fab (Fab, V domains shown, Fab with human γ1 CH1 and human kappa constant domain; also called Clone 16C4; 16C4sup) VH: EVQLVESGGGLVQPGGSLRLSCAASGFTFSSSWMNWVRQAPGKGLEWVGRIYPGDGDTNYNVKFKGRFTISRDDSKNSLYLQMNSLKTEDTAVYYCARSGFITTVRDFDYWGQGTLVTVSS VL: EIVLTQSPDFQSVTPKEKVTITCRASESVDTFGISFMNWFQQKPDQSPKLLIHEASNQGSGVPSRFSGSGSGTDFTLTINSLEAEDAATYYCQQSKEVPFTFGGGTKVEIK | – | – | – | – | – | – | – | – | – | – | – | – | – | – | – | – | – | – | – | EC50 (read off the curve) (human CD19 antigen [3]): ~1000 ng/mL
6C11 affinity matured Fab (Fab, V domains shown, Fab) VH: EVQLVESGGGLVQPGGSLRLSCAASGFTFSSVWMNWVRQAPGKGLEWVGRIYLGDGDTNYNVKFKGRFTISRDDSKNSLYLQMNSLKTEDTAVYYCARSGFITTVRDFDYWGQGTLVTVSS VL: EIVLTQSPDFQSVTPKEKVTITCRASESVDTFGISFMNWFQQKPDQSPKLLIHEASNPGSGVPSRFSGSGSGTDFTLTINSLEAEDAATYYCQQTKRVPFTFGGGTKVEIK | – | – | – | – | – | – | – | – | – | – | – | – | – | – | – | – | – | – | – | EC50 (read off the curve) (human CD19 antigen [2]): ~500 ng/mL
afucosylated 3649 anti-CD19 antibody (antibody, human IgG1, V domains shown, complex N-glycoside-linked sugar chains linked to Asn297 of the Fc region in which fucose is not bound to N-acetylglucosamine in the reducing end) VH: EVQLVESGGGLVQPGGSLRLSCAASGFTFSSSWMNWVRQAPGKGLEWVGRIYPGDGDTNYNGKFKGRFTISRDDSKNSLYLQMNSLKTEDTAVYYCARSGFITTVLDFDYWGQGTLVTVSS VL: EIVLTQSPDFQSVTPKEKVTITCRASESVDTFGISFMNWFQQKPDQSPKLLIHAASNQGSGVPSRFSGSGSGTDFTLTINSLEAEDAATYYCQQSKEVPFTFGGGTKVEIK | 42 | 51 | 48 | 9 | 64 | 59 | 39 | 25 | 54 | 46 | 44 | 53 | 0.0576 | 0.0536 | 0.0142 | 0.0194 | 0.009 | 0.0155 | – | ADCC EC50, Karpas-422 target cells (human CD19 antigen [1]): 0.0442 ng/mL; ADCC EC50, Nalm-6 target cells (human CD19 antigen [1]): 0.0605 ng/mL; ADCC EC50, Namalwa target cells (human CD19 antigen [1]): 0.04 ng/mL; ADCC EC50, Oci-LY19 target cells (human CD19 antigen [1]): 0.0518 ng/mL
16C4 affinity matured anti-CD19 IgG antibody (antibody, V domains shown) VH: EVQLVESGGGLVQPGGSLRLSCAASGFTFSSSWMNWVRQAPGKGLEWVGRIYPGDGDTNYNVKFKGRFTISRDDSKNSLYLQMNSLKTEDTAVYYCARSGFITTVRDFDYWGQGTLVTVSS VL: EIVLTQSPDFQSVTPKEKVTITCRASESVDTFGISFMNWFQQKPDQSPKLLIHEASNQGSGVPSRFSGSGSGTDFTLTINSLEAEDAATYYCQQSKEVPFTFGGGTKVEIK | 6 | 16 | 13 | 0 | 6 | 16 | 17 | 4 | 6 | 15 | 26 | 12 | 0.0576 | 0.0927 | 0.533 | 0.0393 | 0.012 | 0.0545 | – | –
humanized anti-CD19 antibody #2 comprising HB12B-(3-72/JH4) VH, HB12B-3649 VK, and IgG1 heavy chain constant region (antibody, V domains shown, also called humanized HB12B antibody #2) VH: EVQLVESGGGLVQPGGSLRLSCAASGFTFSSSWMNWVRQAPGKGLEWVGRIYPGDGDTNYNGKFKGRFTISRDDSKNSLYLQMNSLKTEDTAVYYCARSGFITTVLDFDYWGQGTLVTVSS VL: EIVLTQSPDFQSVTPKEKVTITCRASESVDTFGISFMNWFQQKPDQSPKLLIHAASNQGSGVPSRFSGSGSGTDFTLTINSLEAEDAATYYCQQSKEVPFTFGGGTKVEIK | – | – | – | – | – | – | – | – | – | – | – | – | – | – | – | – | – | – | ~80 | –
humanized anti-CD19 antibody #1 comprising HB12B-(3-72/JH4) VH and HB12B-364987 VK (antibody, human IgG1, V domains shown, Human IgG1/kappa constant regions; also called humanized HB12B antibody #1) VH: EVQLVESGGGLVQPGGSLRLSCAASGFTFSSSWMNWVRQAPGKGLEWVGRIYPGDGDTNYNGKFKGRFTISRDDSKNSLYLQMNSLKTEDTAVYYCARSGFITTVLDFDYWGQGTLVTVSS VL: EIVLTQSPDFQSVTPKEKVTITCRASESVDTFGISFMNWFQQKPDQSPKLLIHAASNQGSGVPSRFSGSGSGTDFTLTINSLEAEDAATYFCQQSKEVPFTFGGGTKVEIK | – | – | – | – | – | – | – | – | – | – | – | – | – | – | – | – | – | – | ~70 | EC50 (read off the curve) (human CD19 antigen [5]): ~200 ng/mL
Chimeric HB12B antibody comprising HB12B VH and HB12B VK (antibody, human IgG1, V domains shown, also called chHB12B; chimeric anti-CD19 antibody) VH: QVQLQQSGPELVKPGASVKISCKASGYAFSSSWMNWVIQRPGQGLEWIGRIYPGDGDTNYNGKFKGKATLTADKSSSTAYMQLSSLTSVDSAVYFCARSGFITTVLDFDYWGHGTTLTVSS VL: not shown | – | – | – | – | – | – | – | – | – | – | – | – | – | – | – | – | – | – | ~80 | EC50 (read off the curve) (human CD19 antigen [5]): ~200 ng/mL
